The results in this text go back to the Human Domainome abundance scans (Beltran et al. 2025).

First the molecules themselves.
B1: Arginine-glutamic acid dipeptide repeats protein, residues 502 to 543; numbered along this chain, Q9P2R6 (parent)
chain: LKGYACRHCFTTTSKDWHHGGRENILLCTDCRIHFKKYGELP

± gives the uncertainty stated by the source.

This series covers variants of B1. Description: abundance fitness (aPCA) (normalised: wild type 0, dead -1); higher = more abundant; growth selection in yeast, the domain comes from the species named. Conditions: Homo sapiens.
Regarding LKGYACRHCFTTTSKDWHHGGRENILLCTDCLIHFKKYGELP, the abundance fitness is -0.058 ± 0.042.

For LKGYACRHCFTTTSKDWHHGGRENILLCTDCGIHFKKYGELP, the abundance fitness is -0.029 ± 0.033.

As to LKGYACRHCFTTTSKDWHHGGRENILLCTDCVIHFKKYGELP, the abundance fitness is -0.14 ± 0.036.

With LKGYACRHCFTTTSKDWHHGGRENILLCTDCFIHFKKYGELP, the abundance fitness is 0.021 ± 0.061.

With LKGYACRHCFTTTSKDWHHGGRENILLCTDCAIHFKKYGELP, the abundance fitness was -0.011 ± 0.038.

As for LKGYACRHCFTTTSKDWHHGGRENILLCTDCSIHFKKYGELP, the abundance fitness was -0.013 ± 0.035.

LKGYACRHCFTTTSKDWHHGGRENILLCTDCNIHFKKYGELP: the abundance fitness was -0.063 ± 0.071.

As to LKGYACRHCFTTTSKDWHHGGRENILLCTDCCIHFKKYGELP, the abundance fitness is -0.114 ± 0.04.

On to LKGYACRHCFTTTSKDWHHGGRENILLCTDCTIHFKKYGELP, for which the abundance fitness was -0.088 ± 0.048.

With LKGYACRHCFTTTSKDWHHGGRENILLCTDCMIHFKKYGELP, the abundance fitness was -0.017 ± 0.072.

Regarding LKGYACRHCFTTTSKDWHHGGRENILLCTDCEIHFKKYGELP, the abundance fitness was -0.045 ± 0.042.

Consider LKGYACRHCFTTTSKDWHHGGRENILLCTDCPIHFKKYGELP, for which the abundance fitness was -0.612 ± 0.072.

In the case of LKGYACRHCFTTTSKDWHHGGRENILLCTDCWIHFKKYGELP, the abundance fitness was determined as 0.053 ± 0.043.

As for LKGYACRHCFTTTSKDWHHGGRENILLCTDCRIHGKKYGELP, the abundance fitness is -0.287 ± 0.031.

For LKGYACRHCFTTTSKDWHHGGRENILLCTDCRIHDKKYGELP, the abundance fitness was -0.112 ± 0.098.

As for LKGYACRHCFTTTSKDWHHGGRENILLCTDCRIHLKKYGELP, the abundance fitness was -0.057 ± 0.034.

Take LKGYACRHCFTTTSKDWHHGGRENILLCTDCRIHSKKYGELP: the abundance fitness was -0.187 ± 0.038.

On to LKGYACRHCFTTTSKDWHHGGRENILLCTDCRIHRKKYGELP, for which the abundance fitness is -0.236 ± 0.034.

As to LKGYACRHCFTTTSKDWHHGGRENILLCTDCRIHQKKYGELP, the abundance fitness was -0.058 ± 0.044.

As for LKGYACRHCFTTTSKDWHHGGRENILLCTDCRIHPKKYGELP, the abundance fitness is -0.422 ± 0.064.

LKGYACRHCFTTTSKDWHHGGRENILLCTDCRIHAKKYGELP: the abundance fitness was -0.089 ± 0.039.

For LKGYACRHCFTTTSKDWHHGGRENILLCTDCRIHWKKYGELP, the abundance fitness was found to be 0.001 ± 0.037.

As to LKGYACRHCFTTTSKDWHHGGRENILLCTDCRIHCKKYGELP, the abundance fitness is -0.191 ± 0.06.

On to LKGYACRHCFTTTSKDWHHGGRENILLCTDCRIHMKKYGELP, for which the abundance fitness was -0.163 ± 0.067.

As to LKGYACRHCFTTTSKDWHHGGRENILLCTDCRIHKKKYGELP, the abundance fitness is -0.091 ± 0.089.

Take LKGYACRHCFTTTSKDWHHGGRENILLCTDCRIHHKKYGELP: the abundance fitness is -0.015 ± 0.068.

Consider LKGYACRHCFTTTSKDWHHGGRENILLCTDCRIHNKKYGELP, for which the abundance fitness was -0.245 ± 0.14.

As to LKGYACRHCFTTTSKDWHHGGRENILLCTDCRDHFKKYGELP, the abundance fitness came to 0.117 ± 0.054.

LKGYACRHCFTTTSKDWHHGGRENILLCTDCRVHFKKYGELP: the abundance fitness was 0.068 ± 0.037.

Consider LKGYACRHCFTTTSKDWHHGGRENILLCTDCRSHFKKYGELP, for which the abundance fitness was found to be 0.017 ± 0.039.

With LKGYACRHCFTTTSKDWHHGGRENILLCTDCRHHFKKYGELP, the abundance fitness is 0.017 ± 0.085.

As for LKGYACRHCFTTTSKDWHHGGRENILLCTDCRTHFKKYGELP, the abundance fitness came out at 0.042 ± 0.053.

Take LKGYACRHCFTTTSKDWHHGGRENILLCTDCRKHFKKYGELP: the abundance fitness is -0.011 ± 0.04.

LKGYACRHCFTTTSKDWHHGGRENILLCTDCRYHFKKYGELP: the abundance fitness is -0.01 ± 0.063.

On to LKGYACRHCFTTTSKDWHHGGRENILLCTDCRWHFKKYGELP, for which the abundance fitness was -0.059 ± 0.036.

For LKGYACRHCFTTTSKDWHHGGRENILLCTDCRCHFKKYGELP, the abundance fitness came out at 0.103 ± 0.047.

Turning to LKGYACRHCFTTTSKDWHHGGRENILLCTDCRQHFKKYGELP, the abundance fitness amounted to 0.074 ± 0.038.

Turning to LKGYACRHCFTTTSKDWHHGGRENILLCTDCRLHFKKYGELP, the abundance fitness was found to be 0.074 ± 0.043.

Consider LKGYACRHCFTTTSKDWHHGGRENILLCTDCREHFKKYGELP, for which the abundance fitness stood at 0.081 ± 0.04.

As to LKGYACRHCFTTTSKDWHHGGRENILLCTDCRFHFKKYGELP, the abundance fitness is -0.079 ± 0.11.

In the case of LKGYACRHCFTTTSKDWHHGGRENILLCTDCRPHFKKYGELP, the abundance fitness is -0.465 ± 0.057.

As for LKGYACRHCFTTTSKDWHHGGRENILLCTDCRMHFKKYGELP, the abundance fitness is -0.007 ± 0.044.

LKGYACRHCFTTTSKDWHHGGRENILLCTDCRAHFKKYGELP: the abundance fitness amounted to 0.079 ± 0.036.

Consider LKGYACRHCFTTTSKDWHHGGRENILLCTDCRRHFKKYGELP, for which the abundance fitness worked out at 0.026 ± 0.031.

Regarding LKGYACRHCFTTTSKDWHHGGRENILLCTDCRGHFKKYGELP, the abundance fitness was found to be 0.104 ± 0.036.

In the case of LKGYACRHCFTTTSKDWHHGGRENILLCTDCRIHFCKYGELP, the abundance fitness is -0.134 ± 0.064.

On to LKGYACRHCFTTTSKDWHHGGRENILLCTDCRIHFAKYGELP, for which the abundance fitness came to 0.081 ± 0.035.

On to LKGYACRHCFTTTSKDWHHGGRENILLCTDCRIHFEKYGELP, for which the abundance fitness is -0.012 ± 0.039.

In the case of LKGYACRHCFTTTSKDWHHGGRENILLCTDKRIHFKKYGELP, the abundance fitness was -0.732 ± 0.092.

Take LKGYACRHCFTTTSKDWHHGGRENILLCTDYRIHFKKYGELP: the abundance fitness was -0.911 ± 0.13.

With LKGYACRHCFTTTSKDWHHGGRENILLCTDVRIHFKKYGELP, the abundance fitness was -1.08 ± 0.079.

Take LKGYACRHCFTTTSKDWHHGGRENILLCTDPRIHFKKYGELP: the abundance fitness was -1.07 ± 0.15.

For LKGYACRHCFTTTSKDWHHGGRENILLCTDARIHFKKYGELP, the abundance fitness was -0.981 ± 0.057.

Regarding LKGYACRHCFTTTSKDWHHGGRENILLCTDHRIHFKKYGELP, the abundance fitness was -0.733 ± 0.091.

Regarding LKGYACRHCFTTTSKDWHHGGRENILLCTDLRIHFKKYGELP, the abundance fitness is -1.1 ± 0.075.

In the case of LKGYACRHCFTTTSKDWHHGGRENILLCTDWRIHFKKYGELP, the abundance fitness was -1.33 ± 0.19.

Turning to LKGYACRHCFTTTSKDWHHGGRENILLCTDDRIHFKKYGELP, the abundance fitness is -0.527 ± 0.21.

As for LKGYACRHCFTTTSKDWHHGGRENILLCTDRRIHFKKYGELP, the abundance fitness was -1.16 ± 0.07.

As for LKGYACRHCFTTTSKDWHHGGRENILLCTDERIHFKKYGELP, the abundance fitness was -0.742 ± 0.05.

For the variant LKGYACRHCFTTTSKDWHHGGRENILLCTDQRIHFKKYGELP, the abundance fitness was -1.14 ± 0.19.
